Experimental data from patent publication US20260098080A1, “A MODIFIED PROTEIN SCAFFOLD AND USE THEREOF” (EVOLVERITAS BIOTECHNOLÓGIAI KORLÁTOLT FELELOSSÉGU TÁRSASÁG, priority 2022, published 2026).
Substitutions are numbered along the chain they refer to. Where no end group is shown, it is not given here.

B1: EVO25 (designed binder)
chain: KPDFCFLENDPGPCRALKRRYFYNNQTKQCERFYYGGCFGNMNNFETLEECKNICEDG
modifications: not fully specified; cysteine pairing not given here
notes: Modified TFPI-D2 Kunitz domain; made as m1
B2: EVO21b (designed binder)
chain: B1 chain with N9E, Y34G, F39L, E46V
modifications: not fully specified; cysteine pairing not given here
B3: EVO22d (designed binder)
chain: B1 chain with N9E, L17A, E46V
B4: EVO214a (designed binder)
chain: B1 chain with N9E, R19L, Y34G, E46V
B5: EVO23a (designed binder)
chain: B1 chain with N9E, E46V
B6: EVO211a (designed binder)
chain: B1 chain with N9E, P13W, Y34G, E46V
B7: EVO21a (designed binder)
chain: B1 chain with L17V, Y34G, F39L, E46V
modifications: not fully specified; cysteine pairing not given here
notes: as for B1
B8: EVO2a (designed binder)
chain: B1 chain with L17V, Y34K, F39L
modifications: not fully specified; cysteine pairing not given here
notes: as for B1
B9: EVO22b (designed binder)
chain: B1 chain with K18A, F39L, E46V
modifications: not fully specified; cysteine pairing not given here
notes: as for B1
B10: EVO22a (designed binder)
chain: B1 chain with L17A, F39L, E46V
notes: as for B1
B11: EVO2c (designed binder)
chain: B1 chain with N9E, L17V, F39L
modifications: not fully specified; cysteine pairing not given here
notes: as for B1
B12: EVO215 (designed binder)
chain: B1 chain with P13W, L17A, Y34G, F39L, E46V
modifications: not fully specified; ends and bridges not checked
notes: as for B1
B13: EVO2d (designed binder)
chain: B1 chain with N9E, Y34K, F39L
modifications: not fully specified; cysteine pairing not given here
notes: as for B1
B14: EVO211 (designed binder)
chain: B1 chain with P13W, Y34G, F39L, E46V
modifications: not fully specified; ends and bridges not checked
notes: as for B1
B15: EVO2b (designed binder)
chain: B1 chain with N9E, L17V, Y34G, F39L
modifications: not fully specified; cysteine pairing not given here
notes: as for B1
B16: EVO212 (designed binder)
chain: B1 chain with P13L, Y34G, F39L, E46V
modifications: not fully specified; ends and bridges not checked
notes: as for B1
B17: EVO216 (designed binder)
chain: B1 chain with P13W, L17A, R19L, Y34G, F39L, E46V
modifications: not fully specified; cysteine pairing not given here
notes: as for B1
B18: EVO213 (designed binder)
chain: B1 chain with L17A, Y34G, F39L, E46V
notes: as for B1
B19: EVO21d (designed binder)
chain: B1 chain with N9E, Y34S, E46V
modifications: not fully specified; cysteine pairing not given here

molecular target: T1, rat MASP-2cf CCP1-CCP2-SP (rat, UniProt Q9JJS8 298-685); assay: enzyme inhibition, tight-binding fit
T1 construct: range 298-685; Mw 42309 Da; also called rat MASP-2 catalytic fragment
T1 sequence (Q9JJS8 other isoform, or with tags, fused parts or gaps limits assumed, form in doubt): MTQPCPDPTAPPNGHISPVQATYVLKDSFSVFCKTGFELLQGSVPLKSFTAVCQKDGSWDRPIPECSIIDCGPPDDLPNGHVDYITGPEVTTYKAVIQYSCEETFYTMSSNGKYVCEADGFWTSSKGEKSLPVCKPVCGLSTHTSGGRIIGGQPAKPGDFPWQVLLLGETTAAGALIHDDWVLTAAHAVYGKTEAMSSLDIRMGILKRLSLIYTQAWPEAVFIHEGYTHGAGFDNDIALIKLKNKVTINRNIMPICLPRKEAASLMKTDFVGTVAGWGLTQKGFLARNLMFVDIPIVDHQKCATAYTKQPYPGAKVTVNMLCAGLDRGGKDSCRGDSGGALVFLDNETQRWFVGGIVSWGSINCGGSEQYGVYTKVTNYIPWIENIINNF

Row | Binder | Ki [nM]
1 | B1 | 0.9

molecular target: T2, human MASP-2 (in normal human serum) (human, UniProt O00187 16-686); assay: cell-based or functional assay
T2 sequence (O00187 16-686 limits assumed): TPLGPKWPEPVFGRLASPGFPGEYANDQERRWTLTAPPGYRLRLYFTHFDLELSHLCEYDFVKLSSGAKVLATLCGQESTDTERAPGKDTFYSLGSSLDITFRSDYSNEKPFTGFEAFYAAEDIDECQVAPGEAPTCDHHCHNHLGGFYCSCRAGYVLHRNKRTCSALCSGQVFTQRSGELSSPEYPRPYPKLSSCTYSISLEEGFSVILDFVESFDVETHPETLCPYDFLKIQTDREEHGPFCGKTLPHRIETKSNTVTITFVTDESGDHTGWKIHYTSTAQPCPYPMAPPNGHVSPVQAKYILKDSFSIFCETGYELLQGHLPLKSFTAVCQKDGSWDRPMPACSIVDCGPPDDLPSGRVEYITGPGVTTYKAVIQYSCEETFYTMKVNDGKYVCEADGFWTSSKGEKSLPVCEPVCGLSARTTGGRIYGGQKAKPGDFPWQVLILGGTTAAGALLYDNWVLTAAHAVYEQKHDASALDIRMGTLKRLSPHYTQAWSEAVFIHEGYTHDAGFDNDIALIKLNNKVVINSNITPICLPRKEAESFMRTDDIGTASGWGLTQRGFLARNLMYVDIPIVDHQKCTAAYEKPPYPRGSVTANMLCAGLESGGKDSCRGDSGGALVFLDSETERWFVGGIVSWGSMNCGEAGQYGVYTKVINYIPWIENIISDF

Row | Binder | Relative potency (relative human lectin pathway inhibitory efficiency compared to EVO2)
2 | B2 | 32.1 fold relative to EVO2
3 | B3 | 24.6 fold relative to EVO2
4 | B4 | 15.2 fold relative to EVO2
5 | B5 | 43.1 fold relative to EVO2
6 | B6 | 13.5 fold relative to EVO2
7 | B7 | 6.4 fold relative to EVO2

molecular target: T3, human MASP-2cf CCP1-CCP2-SP (human, UniProt O00187 298-686, limits assumed); assay: SPR, target immobilised
T3 construct: domain: CCP1-CCP2-SP; also called human MASP-2 catalytic fragment
T3 sequence (O00187 298-686 limits assumed): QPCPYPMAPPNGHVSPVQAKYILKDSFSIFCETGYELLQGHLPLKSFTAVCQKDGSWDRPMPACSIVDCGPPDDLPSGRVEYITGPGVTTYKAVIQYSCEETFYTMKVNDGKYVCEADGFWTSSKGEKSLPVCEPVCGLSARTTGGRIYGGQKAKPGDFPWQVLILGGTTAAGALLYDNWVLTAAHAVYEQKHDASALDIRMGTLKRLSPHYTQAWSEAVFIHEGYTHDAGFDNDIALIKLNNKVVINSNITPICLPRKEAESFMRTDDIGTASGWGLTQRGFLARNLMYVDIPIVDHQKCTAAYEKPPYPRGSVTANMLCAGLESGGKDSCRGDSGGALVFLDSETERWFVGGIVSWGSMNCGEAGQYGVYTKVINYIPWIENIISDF

Row | Binder | Kd [nM] | Relative affinity [fold vs EVO2] | koff [s⁻¹] | kon [M⁻¹ s⁻¹]
8 | B8 | 2.95 | 0.6 | 0.0021 | 711000
9 | B9 | 0.21 | 8.5 | 0.00026 | 1.24e+06
10 | B7 | 0.723 | 2.5 | 0.000839 | 1.16e+06
11 | B10 | – | 40.1 | 9.09e-05 | 2.04e+06
12 | B11 | 1.04 | 1.7 | 0.00161 | 1.55e+06
13 | B12 | 0.304 | 5.9 | 0.000559 | 1.84e+06
14 | B13 | 1.19 | 1.5 | 0.00108 | 909000
15 | B14 | 0.043 | 41.6 | 6.62e-05 | 1.54e+06
16 | B15 | 1.97 | 0.9 | 0.00156 | 790000
17 | B16 | 0.055 | 32.7 | 8.26e-05 | 1.51e+06
18 | B17 | 0.76 | 2.4 | 0.000732 | 963000
19 | B1 | 0.203 | 8.8 | 0.000438 | 2.16e+06
20 | B18 | 0.542 | 3.3 | 0.000524 | 967000

molecular target: T1, rat MASP-2cf CCP1-CCP2-SP; assay: SPR, target immobilised

Row | Binder | Kd [nM] | Relative affinity [fold vs EVO2] | koff [s⁻¹] | kon [M⁻¹ s⁻¹]
21 | B8 | 4.73 | 0.8 | 0.00151 | 319000
22 | B9 | 0.163 | 22.3 | 0.000159 | 975000
23 | B7 | 2.02 | 1.8 | 0.00104 | 515000
24 | B10 | 0.192 | 18.9 | 0.000163 | 847000
25 | B11 | 1.31 | 2.8 | 0.000978 | 747000
26 | B13 | 1.08 | 3.4 | 0.000438 | 405000
27 | B14 | 2.87 | 1.3 | 0.0027 | 942000
28 | B15 | 1.95 | 1.9 | 0.000942 | 484000
29 | B16 | 1.26 | 2.9 | 0.000618 | 492000
30 | B1 | 0.787 | 4.6 | 0.000826 | 1.05e+06
31 | B18 | 3.81 | 1 | 0.00147 | 386000

molecular target: rat MASP-2 (in rat serum) (rat, UniProt Q9JJS8 20-685); assay: cell-based or functional assay
Sequence (Q9JJS8 20-685 limits assumed): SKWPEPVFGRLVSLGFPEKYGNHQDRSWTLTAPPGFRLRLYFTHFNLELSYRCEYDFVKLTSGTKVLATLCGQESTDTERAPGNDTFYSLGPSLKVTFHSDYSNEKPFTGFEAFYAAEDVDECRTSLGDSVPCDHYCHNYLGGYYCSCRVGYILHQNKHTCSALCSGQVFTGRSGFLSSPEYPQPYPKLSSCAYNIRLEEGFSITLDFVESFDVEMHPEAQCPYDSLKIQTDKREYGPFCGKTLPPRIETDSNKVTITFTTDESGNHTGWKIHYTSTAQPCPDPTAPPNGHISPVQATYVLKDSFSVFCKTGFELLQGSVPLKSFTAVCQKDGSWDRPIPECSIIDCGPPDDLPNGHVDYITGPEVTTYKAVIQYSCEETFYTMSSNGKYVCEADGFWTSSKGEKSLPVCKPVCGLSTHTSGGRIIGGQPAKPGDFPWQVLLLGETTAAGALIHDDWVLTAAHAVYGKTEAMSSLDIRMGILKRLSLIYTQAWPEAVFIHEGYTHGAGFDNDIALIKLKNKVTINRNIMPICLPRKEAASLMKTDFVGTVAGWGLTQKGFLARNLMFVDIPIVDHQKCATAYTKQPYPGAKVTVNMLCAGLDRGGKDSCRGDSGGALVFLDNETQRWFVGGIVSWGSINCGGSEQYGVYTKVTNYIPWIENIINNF

Row | Binder | IC50, lectin pathway C4 deposition, rat serum [nM] | Relative potency, lectin pathway, rat serum [fold vs EVO2]
32 | B8 | 213 | 0.5
33 | B2 | 7.2 | 14.7
34 | B3 | 10.4 | 10.2
35 | B4 | 20.3 | 5.2
36 | B5 | 14.1 | 7.5
37 | B6 | 30.6 | 3.5
38 | B19 | 25.9 | 4.1
39 | B9 | 9.7 | 11
40 | B7 | 39.4 | 2.7
41 | B10 | 10.6 | 10
42 | B11 | 34.3 | 3.1
43 | B13 | 70.9 | 1.5
44 | B14 | 53.2 | 2
45 | B15 | 34.3 | 3.1
46 | B16 | 46.3 | 2.3
47 | B1 | 15 | 7.1
48 | B18 | 88.7 | 1.2

molecular target: T2, human MASP-2 (in normal human serum); assay: cell-based or functional assay; remark: another data set of the same source

Row | Binder | IC50, lectin pathway C4 deposition, human serum [nM] | Relative potency, lectin pathway, human serum [fold vs EVO2]
49 | B8 | 215 | 0.6
50 | B2 | 4.3 | 31.9
51 | B3 | 5.6 | 24.7
52 | B4 | 10.2 | 13.6
53 | B5 | 3.2 | 43
54 | B6 | 9.1 | 15.2
55 | B19 | 8.3 | 16.6
56 | B9 | 13.7 | 10
57 | B7 | 21.4 | 6.5
58 | B10 | 3.7 | 37.1
59 | B11 | 22.3 | 6.2
60 | B12 | 22.7 | 6.1
61 | B13 | 60.3 | 2.3
62 | B14 | 3.1 | 44
63 | B15 | 62.7 | 2.2
64 | B16 | 6.2 | 22.1
65 | B17 | 30.9 | 4.5
66 | B1 | 5.6 | 24.5
67 | B18 | 28.3 | 4.9
